In the supplement of paper PMC10567573:

B1: PLAGL1 (parent)
chain: CKDFLCQFCAQRFGRKDHLTRHTK

Variants of: B1
Experiment: protein stability index of a GFP-peptide fusion (GPS, HEK-293T) (PSI 1-6); higher = more stable
Details: c terminus: a fixed tail appended
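Also: lentivirally expressed fusions sorted by FACS into six bins by GFP to DsRed ratio, PSI derived from sequencing read proportions per bin multiplied by bin number.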

Protein stability index of substitutions, site by site:
T23: N 1.81 | D 2.81 | F 2.23 | P 1.76 | K 2.44 | M 2.04 | Y 1.77 | E 1.68 | L 1.62 | I 2.4 | V 1.87 | S 2.38 | H 2.02 | C 2.17 | Q 3.45 | G 2.15 | R 1.95 | A 2 | W 1.51
L19: Q 2.48 | V 1.99 | S 2.13 | F 2.58 | H 2.16 | Y 1.9 | N 1.91 | A 2.54 | R 2.39 | P 2.02 | C 2.25 | M 2.4 | K 3.13 | D 3.71 | I 2.32 | G 2.73 | T 3.32 | E 1.99 | W 1.65
Q7: K 2.21 | G 2.09 | W 2.57 | V 2.02 | R 2.08 | S 1.76 | H 1.96 | Y 2.06 | M 2.29 | L 1.29 | N 1.74 | T 2.35 | P 2.23 | F 1.74
T20: L 2.22 | A 2.25 | R 1.93 | H 1.96 | P 1.82 | S 2.17 | Q 1.75 | W 1.47 | G 2.17 | V 2.28 | K 2.35 | C 3.02 | N 2.01 | M 2.66 | I 1.58 | F 1.83 | D 1.72 | Y 1.82 | E 2.29
K16: R 2.44 | C 2.53 | Y 1.86 | P 2.25 | N 1.92 | T 2.82 | A 2.67 | M 1.68 | V 2.05 | H 2.39 | I 2.37 | L 2.49 | S 1.95 | F 2.17 | Q 2.62 | E 1.93 | G 2.15 | D 2.35 | W 2.33
G14: K 2 | R 2.12 | N 2.46 | I 2.08 | E 2.78 | C 2.37 | W 1.77 | S 2.72 | M 2.59 | A 2.63 | H 2.13 | L 1.96 | Q 1.98 | T 2.09 | D 2.14 | V 1.99 | F 1.79 | Y 1.99 | P 2.46
Q11: Y 1.51 | M 2.22 | F 1.82 | W 1.76 | R 2.3 | V 2.04 | E 2.14 | I 1.82 | G 2.44 | D 1.75 | S 3.17 | K 2.02 | T 1.75 | P 2.07 | A 1.84 | C 1.85 | H 1.67 | L 2.29 | N 2.01
H22: E 1.8 | C 2.4 | D 2.09 | V 2.81 | P 2.3 | F 1.65 | I 1.76 | K 1.68 | Q 1.77 | G 2.56 | M 2.12 | A 2.03 | S 2.04 | L 1.85 | R 2.15 | W 2.52 | Y 2.7 | N 1.48 | T 2.57
F8: I 1.93 | L 2.89 | K 2.69 | C 3.64 | H 2.87 | Y 1.77 | G 2.32 | D 3.12 | E 2.62 | V 2.18 | A 2.94 | R 3.32 | N 2.82 | S 2.19 | M 2.19 | Q 2.51 | W 1.6 | P 2.47 | T 2.81
R12: D 1.65 | A 1.97 | T 1.88 | E 2.13 | L 1.47 | K 3.04 | P 1.81 | Y 2 | H 2.38 | N 2.22 | C 2.86 | G 2.54 | V 2.33 | F 1.68 | M 1.94 | W 2.14 | Q 1.23 | I 2.6 | S 2.16
D17: R 2.37 | F 2.08 | P 2.4 | T 2.44 | A 2.28 | L 2.03 | Q 1.92 | M 1.3 | V 1.64 | W 1.35 | G 1.67 | K 1.94 | C 2.06 | Y 1.7 | N 2.04 | H 1.85 | S 2.12 | E 2.14 | I 2.52
R21: V 1.59 | E 2.48 | W 2.16 | L 2.1 | N 2.53 | S 1.3 | G 2.02 | H 1.87 | Q 2.56 | C 2.01 | P 2.1 | A 1.94 | T 1.77 | K 2.27 | M 1.97 | Y 1.85 | D 2.37 | I 1.82
H18: Y 2.45 | I 2.07 | W 1.94 | R 2.35 | C 2.6 | D 1.68 | T 2.25 | L 1.33 | P 1.75 | A 2.51 | M 1.64 | V 2.59 | N 1.97 | Q 1.96 | K 2.25 | G 1.95 | S 1.82 | E 1.96 | F 1.49
F13: H 2.31 | D 2.65 | W 2.33 | I 2.02 | E 2.86 | Y 1.99 | N 2.35 | S 3.21 | Q 2.45 | T 2.23 | K 3.02 | P 2.35 | R 2.54 | C 3.07 | L 2.44 | V 2.03 | A 1.91 | M 2.88
K24: E 2.3 | F 2.4 | L 1.49 | M 1.74 | P 2.21 | S 2.02 | I 2.08 | R 2.08 | C 2.83 | H 2.41 | T 2.24 | N 1.9 | V 1.67 | Q 2.25 | G 1.74 | A 2.73 | W 2.03 | D 1.73
R15: W 1.61 | Q 1.74 | C 1.82 | D 2.24 | K 2.52 | I 1.91 | G 2.36 | T 1.93 | V 2.3 | E 2.52 | Y 2.38 | F 1.79 | S 1.73 | A 1.82 | M 1.73 | L 2.06 | P 1.66 | N 1.83 | H 1.85
C9: I 2.56 | V 2.46 | T 1.93 | W 2 | D 2.11 | R 1.45 | A 2.05 | F 1.11 | K 2.42 | S 2.03 | E 2 | L 2.22 | G 2.14 | N 2.58 | M 1.79 | Y 1.47 | H 2.11 | Q 2.72 | P 3.17
A10: F 1.96 | P 2.03 | G 1.79 | D 1.87 | V 2.16 | L 1.79 | T 1.96 | W 1.67 | Q 1.44 | H 1.9 | C 2.19 | I 1.83 | M 1.65 | R 2.14 | S 2.24 | N 1.96 | E 1.69 | K 2.48 | Y 2.16
